Earlier results in patent publication US6610516B1, “Cell culture process” (Genentech, Inc., priority 1999, dated 2003).

Columns and labels:
fibrin = conditions: Keyt et al. 1994

Row | Molecule | Clearance rate versus wild-type human t-PA (Hotchkiss et al., Lau et al.) | Circulatory half-life versus wild-type human t-PA (Keyt et al. 1994) | Fibrin specificity versus wild-type human t-PA (fibrin)
1 | N117Q: t-PA variant wherein asparagine at position 117 of wild-type human t-PA was substituted with glutamine (protein, UniProt P00750 36-562, looked up, variant N117Q) Tissue-type plasminogen …: SYQVICRDEKTQMIYQQHQSWLRPVLRSNRVEYCWCNSGRAQCHSVPVKSCSEPRCFNGGTCQQALYFSDFVCQCPEGFAGKCCEIDTRATCYEDQGISYRGTWSTAESGAECTNWQSSALAQKPYSGRRPDAIRLGLGNHNYCRNPDRDSKPWCYVFKAGKYSSEFCSTPACSEGNSDCYFGNGSAYRGTHSLTESGASCLPWNSMILIGKVYTAQNPSAQALGLGKHNYCRNPDGDAKPWCHVLKNRRLTWEYCDVPSCSTCGLRQYSQPQFRIKGGLFADIASHPWQAAIFAKHRRSPGERFLCGGILISSCWILSAAHCFQERFPPHHLTVILGRTYRVVPGEEEQKFEVEKYIVHKEFDDDTYDNDIALLQLKSDSSRCAQESSVVRTVCLPPADLQLPDWTECELSGYGKHEALSPFYSERLKEAHVRLYPSSRCTSQHLLNRTVTDNMLCAGDTRSGGPQANLHDACQGDSGGPLVCLNDGRMTLVGIISWGLGCGQKDVPGVYTKVTNYLDWIRDNMRP | about two-fold slower clearance rate |  | 
2 | TNK t-PA: t-PA variant: glycosylation site added at position 103, removed at 117, positions 296-299 replaced by AAAA (protein, UniProt P00750 36-562, looked up, variant T103N N117Q K296A H297A R298A R299A) Tissue-type plasminogen …: SYQVICRDEKTQMIYQQHQSWLRPVLRSNRVEYCWCNSGRAQCHSVPVKSCSEPRCFNGGTCQQALYFSDFVCQCPEGFAGKCCEIDTRATCYEDQGISYRGNWSTAESGAECTNWQSSALAQKPYSGRRPDAIRLGLGNHNYCRNPDRDSKPWCYVFKAGKYSSEFCSTPACSEGNSDCYFGNGSAYRGTHSLTESGASCLPWNSMILIGKVYTAQNPSAQALGLGKHNYCRNPDGDAKPWCHVLKNRRLTWEYCDVPSCSTCGLRQYSQPQFRIKGGLFADIASHPWQAAIFAAAAASPGERFLCGGILISSCWILSAAHCFQERFPPHHLTVILGRTYRVVPGEEEQKFEVEKYIVHKEFDDDTYDNDIALLQLKSDSSRCAQESSVVRTVCLPPADLQLPDWTECELSGYGKHEALSPFYSERLKEAHVRLYPSSRCTSQHLLNRTVTDNMLCAGDTRSGGPQANLHDACQGDSGGPLVCLNDGRMTLVGIISWGLGCGQKDVPGVYTKVTNYLDWIRDNMRP |  | increased circulatory half-life | markedly better fibrin specificity
